Test results from patent publication US5851983A, “Elastase inhibitory polypeptide and process for production thereof by recombinant gene technology” (Teijin Limited, priority 1987, dated 1998).

What was measured:
Type in all cases: biochemical
[1] = target: T1, polymorphonuclear leucocyte elastase from human sputum (Homo sapiens, UniProt P08246); assay: Assay for elastase inhibitory activity (Example 35); conditions: enzyme 2 × 10^-8 M, substrate 3.0 × 10^-4 M
T1 construct: Polymorphonuclear leukocyte elastase from human sputum (EPC Co; Funakoshi Yakuhin); purchased EPC Co. (via Funakoshi Yakuhin); host or cells: human sputum
T1 sequence (P08246 30-267): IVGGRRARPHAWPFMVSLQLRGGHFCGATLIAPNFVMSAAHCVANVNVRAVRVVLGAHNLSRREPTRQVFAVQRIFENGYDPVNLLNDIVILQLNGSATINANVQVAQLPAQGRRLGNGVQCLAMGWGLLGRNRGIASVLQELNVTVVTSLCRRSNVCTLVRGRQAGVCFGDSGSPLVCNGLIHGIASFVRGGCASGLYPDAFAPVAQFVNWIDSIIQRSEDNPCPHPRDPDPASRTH
Description: (§1) Assay method used was as follows.
(§2) Buffer: 0.1M (2-hydroxyethyl)piperazine-N'-2-ethansulfonic acid (HEPES), 0.5M NaCl, pH 7.5.
(§3) Enzyme concentration: the following enzyme was dissolved in the above-mentioned buffer to a concentration 9 times that shown in Table 22.
(§4) A. Polymorphonuclear leucocyte elastase from human sputum (EPC Co., Funakoshi Yakuhin)
Substrate solution: for the enzymes A, B, C, D and E, the following substrate a, b, c, d or e, respectively, was dissolved in a solution of DMSO +the above-mentioned buffer (1:9) (note, final concentration of DMSO was 10% in the buffer) to a concentration of 9 times that shown in Table 22.
(§5) a. MeO-Suc-Ala-Ala-Pro-Val-pNA (Bachem) […]
(§6) To wells of an ELISA 96-well microtiter plate, were added 120 μl of the buffer and the 20 μl of a sample solution of (Arg^58 -Ala^107) SLPI obtained in Example 34, followed by 20 μl of the enzyme solution. The mixture was reacted at 37° C. for 10 minutes. Next, 20 μl of the substrate was added, and developed at 37° C. The developed color was measured by absorption at 405 nm.
(§7) As a control the same procedure was carried out using SLPI.

Bovine spleen trypsin = target: T2, Bovine spleen trypsin (Bos taurus, UniProt P00760); assay: Assay for trypsin inhibitory activity (Example 35); conditions: enzyme 2 × 10^-7 M, substrate 1.0 × 10^-3 M
T2 construct: purchased Sigma
T2 sequence (P00760 24-246): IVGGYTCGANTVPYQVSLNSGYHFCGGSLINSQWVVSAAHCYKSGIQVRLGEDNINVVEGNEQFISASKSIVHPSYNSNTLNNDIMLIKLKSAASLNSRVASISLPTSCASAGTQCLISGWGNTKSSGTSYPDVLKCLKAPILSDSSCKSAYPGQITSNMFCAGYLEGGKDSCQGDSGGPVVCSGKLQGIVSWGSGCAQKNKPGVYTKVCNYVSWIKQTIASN
Description: as §1, §2, §3
B. Bovine spleen trypsin (Sigma)
Substrate solution: for the enzymes A, B, C, D and E, the following substrate a, b, c, d or e, respectively, was dissolved in a solution of DMSO +the above-mentioned buffer (1:9) (note, final concentration of DMSO was 10% in the buffer) to a concentration of 9 times that shown in Table 22. […]
as §6, §7

Human plasma thrombin = target: T3, Human plasma thrombin (Homo sapiens, UniProt P00734); assay: Assay for thrombin inhibitory activity (Example 36); conditions: final concentration up to ×10^-5 M; enzyme 3 × 10^-9 M
T3 construct: (5) Human plasma thrombin (Kabi, Daiichi Kagaku Yakuhin); purchased Kabi (via Daiichi Kagaku Yakuhin); host or cells: human plasma
Description: F. Human plasma thrombin (Sigma)
(§8) Thrombin and FXa: 50 mM Tris-HCl, 7.5 mM EDTA-2Na, 175 mM NaCl (pH 8.4) […]
(§9) Substrate solution: for the enzymes F, G, H and I, the following substrate f, g, h or i, respectively, was dissolved to a final concentration shown in Table 24.
f. H.D-Phe-Pip-Arg-pNA (Kabi Vitrum)
(§10) To wells of an ELISA 96-well microtiter plate, were added a solution of (Arg^58 -Ala^107) SLPI obtained in Example 34 and then the enzyme solution, and the mixture was incubated at 37° C. for 10 minutes. Next, the substrate solution was added to develop the color, whose absorption was then measured at 405 nm. As a control, SLPI was used.

Human plasma plasmin = target: T4, Human plasma plasmin (Homo sapiens, UniProt P00747); assay: Assay for plasmin inhibitory activity (Example 36); conditions: final concentration up to ×10^-5 M; enzyme 1.0 × 10^-7 M
T4 construct: (6) Human plasma plasmin (Kabi, Daiichi Kagaku Yakuhin); purchased Kabi (via Daiichi Kagaku Yakuhin); host or cells: human plasma
T4 sequence (P00747 581-810 limits assumed): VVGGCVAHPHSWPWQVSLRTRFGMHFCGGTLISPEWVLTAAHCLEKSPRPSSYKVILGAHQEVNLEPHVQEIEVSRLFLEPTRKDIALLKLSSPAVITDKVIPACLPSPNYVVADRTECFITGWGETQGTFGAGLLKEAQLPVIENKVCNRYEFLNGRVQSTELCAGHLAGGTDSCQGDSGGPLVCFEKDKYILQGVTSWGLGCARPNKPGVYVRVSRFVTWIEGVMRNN
T4 sequence (P00747 97-580 partner limits assumed): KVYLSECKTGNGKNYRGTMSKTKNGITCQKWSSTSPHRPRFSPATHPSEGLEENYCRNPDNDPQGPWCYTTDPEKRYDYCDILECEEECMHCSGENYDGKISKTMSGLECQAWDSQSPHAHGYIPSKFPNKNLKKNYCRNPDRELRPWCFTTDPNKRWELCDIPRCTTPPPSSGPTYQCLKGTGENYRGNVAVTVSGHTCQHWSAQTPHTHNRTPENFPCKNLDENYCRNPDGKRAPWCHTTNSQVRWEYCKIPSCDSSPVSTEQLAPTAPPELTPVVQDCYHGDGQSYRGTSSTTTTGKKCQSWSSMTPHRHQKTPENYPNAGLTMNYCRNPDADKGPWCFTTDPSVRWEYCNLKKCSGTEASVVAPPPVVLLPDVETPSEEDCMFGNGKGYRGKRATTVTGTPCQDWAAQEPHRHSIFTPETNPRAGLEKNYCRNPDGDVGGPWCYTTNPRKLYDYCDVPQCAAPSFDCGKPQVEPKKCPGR
Description: G. Human plasma plasmin (sigma)
Plasmin: 50 mM Tris-HCl, 100 mM NaCl (pH 7.4) […]
as §9
g. H.D-Val-Leu-Lys-pNA (Kabi Vitrum)
as §10

Human plasma kallikrein = target: T5, Human plasma kallikrein (Homo sapiens, UniProt P03952); assay: Assay for kallikrein inhibitory activity (Example 36); conditions: final concentration up to ×10^-5 M; enzyme 1.0 × 10^-7 M
T5 construct: (7) Human plasma kallikrein (Kabi, Daiichi Kagaku Yakuhin); purchased Kabi (via Daiichi Kagaku Yakuhin); host or cells: human plasma
T5 sequence (P03952 391-638 limits assumed): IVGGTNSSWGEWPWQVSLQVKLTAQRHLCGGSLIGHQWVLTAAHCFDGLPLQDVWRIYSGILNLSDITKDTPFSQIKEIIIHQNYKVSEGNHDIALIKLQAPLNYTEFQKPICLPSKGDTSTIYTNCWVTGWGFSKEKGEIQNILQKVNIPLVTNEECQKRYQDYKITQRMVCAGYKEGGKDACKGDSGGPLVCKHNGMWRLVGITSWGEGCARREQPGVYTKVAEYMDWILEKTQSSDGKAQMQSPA
T5 sequence (P03952 20-390 partner limits assumed): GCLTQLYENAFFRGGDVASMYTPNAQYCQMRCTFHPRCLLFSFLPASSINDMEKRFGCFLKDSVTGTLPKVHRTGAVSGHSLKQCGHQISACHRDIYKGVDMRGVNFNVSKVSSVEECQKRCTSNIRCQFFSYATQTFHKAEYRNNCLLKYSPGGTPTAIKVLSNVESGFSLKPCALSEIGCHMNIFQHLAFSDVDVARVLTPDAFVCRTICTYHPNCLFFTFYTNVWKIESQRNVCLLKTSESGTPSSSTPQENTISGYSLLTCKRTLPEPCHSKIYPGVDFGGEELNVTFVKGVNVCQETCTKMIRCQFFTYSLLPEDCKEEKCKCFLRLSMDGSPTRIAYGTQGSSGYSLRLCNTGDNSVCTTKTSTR
Description: H. Human plasma kallikrein (Protogene, Funakoshi Yakuhin)
Kallikrein: 50 mM Tris-HCl, 361 mM NaCl, 0.01 mg/ml Polybrene (pH 7.8) […]
as §9
h. H.D-Pro-Phe-Arg-pNA (Kabi Vitram)
as §10

Porcine FXa = assay: Assay for Fxa inhibitory activity (Example 36); conditions: final concentration up to ×10^-5 M; enzyme 1.0 × 10^-8 M
Description: I. Porcine FXa (Daichi Seiyaku)
as §8, §9
i. Ratio 1:1 mixture of the following compounds: [drawing 6]
as §10

[2] = test system: polymorphonuclear leucocyte elastase from human sputum; assay: Inhibitory constant (Ki) assay, elastase (Example 37); conditions: from Table 26
Description: Method for assay is as follow.
Buffer: 0.1M N-(2-hydroxyethyl)piperazine-N'-2-ethanesulfonic acid (HEPES), 1.0M NaCl, 0.1% polyethylene glycol (pH 7.5)
Enzyme solution: the following enzyme was dissolved in the above-mentioned buffer to a concentration 9 times that shown in Table 25.
as §4
Substrate solution: for the enzymes A and B, the following substrate a or b was dissolved in a solution of DMSO+the above-mentioned buffer (1:9), or in DMSO, respectively.
as §5
To wells of an ELISA 96-well microtiter plate, were added 120 μl of the buffer, 20 μl of a sample solution of ([…] -Ala^107) SLPI obtained in Example 25, and 20 μl of the enzyme solution in this order, an the mixture was reacted at 37° C. for 1 hour. Next, 20 μl of the substrate was added to develop at 25° C. Absorption of the developed color was measured at 405 nm. As a control, SLPI was used.
On the basis of the result thus obtained, an inhibitory constant (Ki) of (Arg^58 -Ala^107) SLPI of the present invention was calculated according to the method of Henderson (Henderson, P. J. F. (1972), Biochem. J. 127, 321-333).

(Arg^58 -Ala^107) SLPI: polypeptide having an amino acid sequence starting with the 58th Arg and ending at the 107th Ala of SLPI (RRKPGKCPVTYGQCLMLNPPNFCEMDGQCKRDLKCCMGMCGKSCVSPVKA)
IC50 [1]: 12 nM
IC50 (Bovine spleen trypsin): 2000 nM
inhibitory activity to thrombin (Human plasma thrombin): did not exhibit inhibitory activity
inhibitory activity to plasmin (Human plasma plasmin): did not exhibit inhibitory activity
inhibitory activity to kallikrein (Human plasma kallikrein): did not exhibit inhibitory activity
inhibitory activity to FXa (Porcine FXa): did not exhibit inhibitory activity
relative ratio of inhibitory activity on trypsin to that on elastase (Ki(T)/Ki(E)) [2]: about 12,000
